Earlier results on one substance are cited in publication PMC6482830.

For the series, the target named is eIF4E (Homo sapiens) (UniProt P06730). Briefly: ITC.
UniProt P06730, sequence (P06730 2-217): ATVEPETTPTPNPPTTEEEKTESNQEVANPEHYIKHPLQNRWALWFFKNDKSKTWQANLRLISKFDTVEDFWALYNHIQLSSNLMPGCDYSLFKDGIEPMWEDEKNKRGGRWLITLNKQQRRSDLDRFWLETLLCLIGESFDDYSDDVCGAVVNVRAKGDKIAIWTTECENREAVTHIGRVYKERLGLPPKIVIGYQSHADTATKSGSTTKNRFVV

Take 4E-BP1 peptide (from UniProt Q13541): the dissociation constant (Kd) is 50 nM.
